Laboratory results: PMC7367192

Assays:
[1] = biological target: vWF A1 domain (UniProt P04275); assay: MST; conditions: MST: PBS (162 mM ionic strength), optionally +150 mM NaCl; EMSA: 0.5x TA (20 mM ionic strength), +10 or +40 mM NaCl; FCS after shear at 2000-4000 s-1; pH and …
[2] = biological target: vWF A1 domain R1392A/R1395A/R1399A (UniProt P04275); assay: MST; conditions: MST: PBS (162 mM ionic strength), optionally +150 mM NaCl; EMSA: 0.5x TA (20 mM ionic strength), +10 or +40 mM NaCl; FCS after shear at 2000-4000 s-1; pH and …
[3] = biological target: eGFP full-length vWF dimer (UniProt P04275); assay: EMSA; conditions: fixed dimer 0.47 mg/ml, DNA titrated; MST: PBS (162 mM ionic strength), optionally +150 mM NaCl; EMSA: 0.5x TA (20 mM ionic strength), +10 or +40 mM NaCl; FCS after shear at 2000-4000 s-1; pH and …
[4] = biological target: wt vWF multimer (UniProt P04275); assay: FCS; conditions: MST: PBS (162 mM ionic strength), optionally +150 mM NaCl, EMSA: 0.5x TA (20 mM ionic strength), +10 or +40 mM NaCl, FCS after shear at 2000-4000 s-1, pH and …

Sequence	Kd [1]	Kd [2]	Kd [3]	binding signal ([4]; shear 4000 s-1)	binding signal ([4]; shear, 2000 s-1?)
GGCGTGCAGTGCCTTCGGCCGTGCGGTGCCTCCGTCACGCCTAAAATAAAA [ARC1172 ss DNA]	10 µM	130 µM	0.001 µM	–	–
CATAAATCTTTGAATACCAAGTGTTAGAACCATCAACCATATCAACTTCCTTTATACATCTA / CTACATCACTTTCTTCATTATAAAATAAAAGGAAGTTGATATGGTTGATG [23 bp ds DNA]	13 µM	30 µM	–	23 % bound	21 % bound
